Measured values reported in patent US20060135432A1, “Agonists and antagonists of conadotropin-releasing hormone-2, and use thereof” (priority 2002, published 2006).
[ ]: non-standard residue; d: D form. dPhe(4-Cl) = N[C@H](Cc1ccc(Cl)cc1)C(=O)O; d2Nal = N[C@H](Cc1ccc2ccccc2c1)C(=O)O; dCit = NC(=O)NCCC[C@@H](N)C(=O)O; d3Pal = N[C@H](Cc1cccnc1)C(=O)O

Columns and labels:
[1] = molecular target: bfGnRHR-3 (bullfrog); test: cell-based or functional assay; conditions: for Log IC50, inhibition of GnRH-2-induced inositol phosphate production in GH3 cells expressing the receptor: scale: log IC50
[2] = molecular target: rat GnRHR (rat) (UniProt P30969); test: cell-based or functional assay; conditions: scale: log IC50
[3] = molecular target: bfGnRHR-3 (bullfrog); test: displacement of I^125-GnRH-2 from membranes of GH3 cells expressing bfGnRHR-3; conditions: scale: log IC50
[4] = molecular target: rat GnRHR (rat) (UniProt P30969); test: displacement of I^125-GnRH-2 from membranes of GH3 cells expressing rat GnRHR; conditions: scale: log IC50

Chain of rat GnRHR (rat) (P30969 whole entry): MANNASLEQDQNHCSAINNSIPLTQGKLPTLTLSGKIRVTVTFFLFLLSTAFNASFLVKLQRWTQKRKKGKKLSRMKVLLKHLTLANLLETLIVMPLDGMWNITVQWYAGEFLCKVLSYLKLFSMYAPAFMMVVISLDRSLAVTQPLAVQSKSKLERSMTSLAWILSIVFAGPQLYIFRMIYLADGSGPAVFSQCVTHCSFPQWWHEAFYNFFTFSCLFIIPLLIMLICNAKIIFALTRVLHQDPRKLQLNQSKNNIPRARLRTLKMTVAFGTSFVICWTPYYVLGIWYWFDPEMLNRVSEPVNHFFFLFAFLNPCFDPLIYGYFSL

Row | Binder | inhibition of GnRH-2-induced IP production, sensitivity compared with Cetrorelix (fold more sensitive than Cetrorelix) [1] | Log IC50, inhibition of GnRH-2-induced inositol phosphate production in GH3 cells expressing the receptor [1] | Log IC50, inhibition of GnRH-induced inositol phosphate production in GH3 cells expressing the receptor [2] | log IC50 [3] | log IC50 [4]
1 | Ac-[d2Nal][dPhe(4-Cl)][d3Pal]SY[dCit]WYP[dA]-NH2 [Trptorelix-1] | 1000 | -8.49 | -9.27 | -11.7 | -11.8
2 | Ac-[d2Nal][dPhe(4-Cl)][d3Pal]SY[dCit]LRP[dA]-NH2 [Cetrorelix] | – | -6.28 | -11 | -7.11 | -12.6
